Earlier results on one substance are cited in paper PMC4596410.

For orientation: pKa means the pH at which an ionisable group is half protonated.

This data set addresses Lys115 (UniProt position 115, LSAYPKKLGYP).

Turning to “Acetoacetate decarboxylase (not stated in the article (Clostridium acetobutylicum inferred))”, the pKa is listed as 6.
